Publication PMC10985467 (Molecular Cancer Therapeutics, 2024)

Target: CD22 on human lymphoma and leukemia cell lines (Homo sapiens (Human)., UniProt P20273)
Experiment: cell-based or functional assay

CD22 on human lymphoma and leukemia cell lines, sequence (P20273 20-847): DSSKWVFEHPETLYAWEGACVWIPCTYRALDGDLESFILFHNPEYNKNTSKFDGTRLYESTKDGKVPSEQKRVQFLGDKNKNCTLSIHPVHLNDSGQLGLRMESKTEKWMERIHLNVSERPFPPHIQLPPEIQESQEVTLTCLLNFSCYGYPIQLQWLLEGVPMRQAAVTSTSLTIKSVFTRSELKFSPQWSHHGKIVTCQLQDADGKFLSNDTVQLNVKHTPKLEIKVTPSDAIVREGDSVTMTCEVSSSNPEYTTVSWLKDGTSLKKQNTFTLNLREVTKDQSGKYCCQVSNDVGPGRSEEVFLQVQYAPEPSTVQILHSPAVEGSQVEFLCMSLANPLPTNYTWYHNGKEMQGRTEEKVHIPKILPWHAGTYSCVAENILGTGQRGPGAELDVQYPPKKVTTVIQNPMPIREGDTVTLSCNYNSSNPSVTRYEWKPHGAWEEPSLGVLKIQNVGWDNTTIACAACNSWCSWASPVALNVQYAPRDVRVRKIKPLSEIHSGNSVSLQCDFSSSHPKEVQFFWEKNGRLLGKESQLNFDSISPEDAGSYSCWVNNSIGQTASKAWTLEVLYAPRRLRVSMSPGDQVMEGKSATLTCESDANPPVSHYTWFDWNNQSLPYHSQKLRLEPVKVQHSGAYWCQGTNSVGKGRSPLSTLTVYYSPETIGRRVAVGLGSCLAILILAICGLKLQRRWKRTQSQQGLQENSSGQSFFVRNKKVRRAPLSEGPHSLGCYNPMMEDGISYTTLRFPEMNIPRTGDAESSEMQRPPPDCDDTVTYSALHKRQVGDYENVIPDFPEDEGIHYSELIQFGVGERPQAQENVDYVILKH

B1: ADCT-602 (hLL2-C220 site-specifically conjugated to the PBD dimer payload tesirine, SG3249) (antibody, V domains shown)
VH: QVQLVQSGAEVKKPGSSVKVSCKASGYTFTSYWLHWVRQAPGQGLEWIGYINPRNDYTEYNQNFKDKATITADESTNTAYMELSSLRSEDTAFYFCARRDITTFYWGQGTLVTVSS
VL: DIQLTQSPSSLSASVGDRVTMSCKSSQSVLYSANHKNYLAWYQQKPGKAPKLLIYWASTRESGVPSRFSGSGSGTDFTFTISSLQPEDIATYYCHQYLSSWTFGQGTKVEIK
Which “IC50 of in vitro cytotoxicity (MTS, 96 hours), DO HH-2 cells” value does the source give for B1 here?
The value was 60 pM.

What about the “IC50 of in vitro cytotoxicity (MTS, 96 hours), Daudi cells” value of the same binder?
The value was 70 pM.

And the “IC50 of in vitro cytotoxicity (MTS, 96 hours), GRANTA-519 cells” value?
Its value is 20 pM.

And the “IC50 of in vitro cytotoxicity (MTS, 96 hours), MEC-2 cells” value?
Its value is 180 pM.

What about the “IC50 of in vitro cytotoxicity (MTS, 96 hours), NALM-6 cells” value of the same binder?
The value was 110 pM.

And the “IC50 of in vitro cytotoxicity (MTS, 96 hours), NAMALWA cells” value?
Its value is 2270 pM.

What about the “IC50 of in vitro cytotoxicity (MTS, 96 hours), REH cells” value of the same binder?
Its value is 50 pM.

What about the “IC50 of in vitro cytotoxicity (MTS, 96 hours), Ramos cells” value of the same binder?
Its value is 60 pM.
